According to publication PMC3627495:

Experiments:
[1] = target: His-YFP-EB3 S162E and His-CFP-EB3 S162E, full-length phospho-mimetic mutant (human) (UniProt Q9UPY8); assay: FRET or BRET
[2] = target: His-YFP-EB3 and His-CFP-EB3, full-length wild type (human) (UniProt Q9UPY8); assay: FRET or BRET

## His-YFP-EB3 S162E and His-CFP-EB3 S162E, full-length phospho-mimetic mutant (from UniProt Q9UPY8 1-281) (natural protein)
[1]
  t1/2 of chain exchange: 1.39 h
[2]
  t1/2 of chain exchange: 1.01 h

## His-YFP-EB3 and His-CFP-EB3, full-length wild type (from UniProt Q9UPY8 1-281) (natural protein)
[2]
  t1/2 of chain exchange: 2.66 h
